The results in this text go back to patent publication US20070264678A1.

Bounds are passed on as bounds.

The target in assay [1] is PTK labeled tracer F-ADE(pY)LIPQQS. In words: binding curves as in Example 2 (FP), antibody at several labeling ratios.
For assay [2] the target is unchanged. In words: fluorescence polarization, direct binding curve: labeled antibody 10 nM to 9.8 pM against 1 nM tracer. A general note: Polarisation of emitted light reports the rotation of a fluorescent probe.

For the substance “Anti p-Tyr antibody (anti-pY20) labeled with CS124-DTPA-Phe-NCS*Tb”, the fold variation of affinity for the tracer upon labeling in assay [1] is under 2 fold.

What is called EC50 is the concentration needed to bring the measured effect to its halfway point. Low values mean higher potency in that assay, high ones lower potency in that assay. In turn, “Tb-chelate labeled PY72 (anti-phosphotyrosine) IgG antibody” had an EC50 in assay [2] of 1 nM.
